T1: mouse P-selectin (mouse, UniProt Q01102)
T1 chain: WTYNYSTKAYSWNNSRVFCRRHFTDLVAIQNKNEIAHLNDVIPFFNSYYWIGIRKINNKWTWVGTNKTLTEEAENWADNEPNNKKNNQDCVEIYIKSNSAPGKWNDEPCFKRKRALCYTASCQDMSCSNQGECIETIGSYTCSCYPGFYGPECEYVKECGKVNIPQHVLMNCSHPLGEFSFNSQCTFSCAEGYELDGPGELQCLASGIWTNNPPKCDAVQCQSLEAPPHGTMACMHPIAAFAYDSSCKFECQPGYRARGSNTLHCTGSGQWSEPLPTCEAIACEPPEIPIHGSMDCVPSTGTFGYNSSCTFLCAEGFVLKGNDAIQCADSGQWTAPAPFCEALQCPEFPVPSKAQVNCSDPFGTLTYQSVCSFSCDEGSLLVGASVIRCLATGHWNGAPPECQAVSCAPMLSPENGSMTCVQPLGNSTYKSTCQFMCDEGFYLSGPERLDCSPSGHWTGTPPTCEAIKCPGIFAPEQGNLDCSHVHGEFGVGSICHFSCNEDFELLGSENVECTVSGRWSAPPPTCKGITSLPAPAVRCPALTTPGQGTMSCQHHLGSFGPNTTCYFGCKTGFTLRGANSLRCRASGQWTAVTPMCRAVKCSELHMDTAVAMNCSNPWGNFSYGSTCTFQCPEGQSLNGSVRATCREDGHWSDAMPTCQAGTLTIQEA


Molecular target: T1, mouse P-selectin
Test: SPR, 25C

Kd	Binder
630 nM	NB.PSelscFv-Crry (2.3scFv-Crry, non-blocking) (antibody) MSVPTQVLGLLLLWLTDARCQIQLVLSGPELKKPGESVKISCKASGYTFTTYGMSWVKQAPGKGLKWMGWINTSSGVPTYADDFKGRFAFSLETSASTAYLQINNLKNEDTATYFCARGGGYYGAYYFYYWGQGTTLTVSSGGGGSGGGGSGGGGSDIQMTQSPASLSASVGETVTITCRTSDNINSYLAWYLQRQGKSPQLLVYNAKTLTEGVPSRFSGSGSGTQFSLKINSLQPEDFGSYYCQHHYGPPPTFGGGTKLEIKGGGGSGGGGSCPAPSQLPSAKPINLTDESMFPIGTYLLYECLPGYIKRQFSITCKQDSTWTSAEDKCIRKQCKTPSDPENGLVHVHTGIQFGSRINYTCNQGYRLIGSSSAVCVITDQSVDWDTEAPICEWIPCEIPPGIPNGDFFSSTREDFHYGMVVTYRCNTDARGKALFNLVGEPSLYCTSNDGEIGVWSGPPPQCIELNKCTPPPYVENAVMLSENRSLFSLRDIVEFRCHPGFIMKGASSVHCQSLNKWEPELPSCFKGVICRLPQEMSGFQKGLGMKKEYYYGENVTLECEDGYTLEGSSQSQCQSDGSWNPLLAKCVSRSIIEGRHHHHHH
333 nM	B.PSelscFv-Crry (2.12scFv-Crry, blocking) (antibody) MPMGSLQPLATLYLLGMLVASVLAHHHHHHIEGREVKLVESGGGLVQPGSSMKLSCTTSGFTFSDYYMAWVRQVPEKGLEWVANINYDGSSAYYLDSFKSRFTISRDNEKNILYLQMSSLKSEDTATYYCARGDWFVYWGQGTLVTVSAGGGGSGGGGSGGGGSDIQMTQSPSSMSASLGERVTITCKASQDINSYLNWFQQKPGKSPKTLIFRANRLVDGVPSRFSGSGSGQDYSLTISSLEFEDVGIYYCLQYAEFPFTFGSGTKLEIKGGGGSGGGGSCPAPSQLPSAKPINLTDESMFPIGTYLLYECLPGYIKRQFSITCKQDSTWTSAEDKCIRKQCKTPSDPENGLVHVHTGIQFGSRINYTCNQGYRLIGSSSAVCVITDQSVDWDTEAPICEWIPCEIPPGIPNGDFFSSTREDFHYGMVVTYRCNTDARGKALFNLVGEPSLYCTSNDGEIGVWSGPPPQCIELNKCTPPPYVENAVMLSENRSLFSLRDIVEFRCHPGFIMKGASSVHCQSLNKWEPELPSCFKGVICRLPQEMSGFQKGLGMKKEYYYGENVTLECEDGYTLEGSSQSQCQSDGSWNPLLAKCVSRSIIEGRHHHHHH

— patent publication US20260356956 (published 2026)
